# Laboratory results published in patent publication US20050020492A1 (MERCK, published 2005).
# Where two headings read alike, the source gives them in different places. Positions of bridges follow the written chain, without caps; N, C: chain ends. Non-standard residues stand in square brackets, D forms with d. No end group written: not given here. Nle = CCCC[C@H](N)C(=O)O
# B1: SEQ. ID. NO. 15 (Δ(X^6-Cys^7), Mpr^7 analog of Ac-hMCH(6-16)-NH2) (peptide)
# peptide: XMLGRVYRPC
# modifications: Ac-Arg^6 segment eliminated; Mpr, des-amino-cysteine (3-mercaptopropionic acid) at position 7 instead of Cys; C-terminal amide; disulfide ring
# Experiments:
# [1] = target: T1, human MCH-2R (human, UniProt Q969V1 1-340); assay: SPA, total against non-specific binding (500 nM unlabeled hMCH)
# T1 sequence (Q969V1 whole entry): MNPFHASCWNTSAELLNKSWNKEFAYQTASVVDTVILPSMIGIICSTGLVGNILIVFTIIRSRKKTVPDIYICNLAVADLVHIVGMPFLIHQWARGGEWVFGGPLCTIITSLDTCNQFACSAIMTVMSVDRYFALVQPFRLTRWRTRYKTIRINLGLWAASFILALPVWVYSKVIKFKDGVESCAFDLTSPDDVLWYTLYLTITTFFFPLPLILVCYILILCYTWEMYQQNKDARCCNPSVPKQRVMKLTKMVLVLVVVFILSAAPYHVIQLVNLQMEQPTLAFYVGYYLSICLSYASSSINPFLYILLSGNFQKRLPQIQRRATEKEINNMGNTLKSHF
# [2] = target: T2, human MCH-1R (human, UniProt Q99705 1-353); assay: as above
# T2 sequence (Q99705 whole entry): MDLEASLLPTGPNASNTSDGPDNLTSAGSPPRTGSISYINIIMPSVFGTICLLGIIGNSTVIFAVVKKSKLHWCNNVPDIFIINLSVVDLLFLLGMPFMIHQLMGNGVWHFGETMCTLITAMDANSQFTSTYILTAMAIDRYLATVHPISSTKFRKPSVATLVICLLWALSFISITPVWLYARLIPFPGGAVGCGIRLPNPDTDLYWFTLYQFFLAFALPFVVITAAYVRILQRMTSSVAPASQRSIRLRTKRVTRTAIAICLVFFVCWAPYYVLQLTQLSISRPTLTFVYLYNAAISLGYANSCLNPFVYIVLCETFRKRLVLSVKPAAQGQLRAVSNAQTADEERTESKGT
# [3] = target: T2, human MCH-1R; assay: ratio of the two SPA IC50s
# [4] = target: T1, human MCH-2R; assay: SPA radioligand binding assay
# Method: (§1) After equilibrating at room temperature for 3 hours, the plates were read in a TopCount (Packard, Meriden, Conn.). IC₅₀ calculations were performed using Prism 3.0 (GraphPad. Software, San Diego, Calif.). The IC₅₀ values were measured in three different experiments.
# [5] = target: T2, human MCH-1R; assay: SPA radioligand binding assay
# Method: as §1
# [6] = target: T1, human MCH-2R; assay: cell-based or functional assay
# [7] = target: T2, human MCH-1R; assay: cell-based or functional assay
# [8] = target: T1, human MCH-2R; assay: SPA, displacement of [125I]-[Phe13,Tyr19]-hMCH, MCH-2R membranes
# Method: as §1
# [9] = target: T1, human MCH-2R; assay: cell-based or functional assay; remark: listed apart in the source
# [10] = target: T2, human MCH-1R; assay: cell-based or functional assay; remark: listed apart in the source
# [11] = target: T2, human MCH-1R; assay: SPA, displacement of [125I]-[Phe13,Tyr19]-hMCH, CHO/MCH-1R membranes
# Method: as §1
# [12] = target: T1, human MCH-2R; assay: cell-based or functional assay; remark: listed apart in the source
# [13] = target: T2, human MCH-1R; assay: cell-based or functional assay; remark: listed apart in the source
# [14] = target: T1, human MCH-2R; assay: SPA, displacement of [125I]-[Phe13,Tyr19]-hMCH, MCH-2R membranes
# [15] = target: T2, human MCH-1R; assay: SPA, displacement of [125I]-[Phe13,Tyr19]-hMCH, CHO/MCH-1R membranes
# [16] = target: T2, human MCH-1R; assay: ratio of the two SPA IC50s
# [17] = target: T2, human MCH-1R; assay: ratio of the two SPA IC50s; remark: listed apart in the source
# [18] = target: T1, human MCH-2R; assay: SPA, displacement of [125I]-[Phe13,Tyr19]-hMCH, MCH-2R membranes; remark: listed apart in the source
# Method: as §1
# [19] = target: T1, human MCH-2R; assay: cell-based or functional assay; remark: listed apart in the source
# [20] = target: T2, human MCH-1R; assay: cell-based or functional assay; remark: listed apart in the source
# [21] = target: T2, human MCH-1R; assay: SPA, displacement of [125I]-[Phe13,Tyr19]-hMCH, CHO/MCH-1R membranes; remark: listed apart in the source
# Method: as §1
molecule,measurement,setting,value
[^125I]-[Phe^13Tyr^19]-hMCH (peptide),specific binding window,[1],3 ×
same,specific binding window,[2],> 6 ×
B1,Selectivity 2/1 (MCH-2R/MCH-1R IC50 ratio),[3],500 ratio
same,IC50,[4],> 3000 nM
same,fold lower binding affinity than Ac-hMCH(6-16)-NH2,[5],~5 fold
same,"Activation %, aequorin bioluminescence",[6],47%
same,"EC50, aequorin bioluminescence",[6],3100 nM
same,"Activation %, aequorin bioluminescence",[7],92%
same,"EC50, aequorin bioluminescence",[7],610 nM
same,Selectivity 2/1 (MCH-2R/MCH-1R EC50 activity ratio),[7],5 ratio
same,IC50,[8],3500 nM
same,EC50,[9],> 3000 nM
same,fold lower activity than Ac-hMCH(6-16)-NH2,[10],~30 fold
same,IC50,[11],7 nM
"[dR]C[Nle]LNRVYRPC-NH2 (disulfide 2-11 (inferred)) [SEQ. ID. NO. 32 (ΔAc, D-Arg^6, Nle^8, Asn^10 analog of Ac-hMCH(6-16)-NH2)]","Activation %, aequorin bioluminescence",[12],53%
same,"EC50, aequorin bioluminescence",[12],1470 nM
same,"Activation %, aequorin bioluminescence",[13],130%
same,"EC50, aequorin bioluminescence",[13],350 nM
same,Selectivity 2/1 (MCH-2R/MCH-1R EC50 activity ratio),[13],4
same,IC50,[14],250 nM
same,IC50,[15],0.09 nM
same,Selectivity 2/1 (MCH-2R/MCH-1R IC50 ratio),[16],890
Ac-RCMLARVYRPC-NH2 (disulfide 2-11 (inferred)) [SEQ. ID. NO. 16 (Ala^10 analog of Ac-hMCH(6-16)-NH2)],Selectivity 2/1 (MCH-2R/MCH-1R IC50 ratio),[17],16 ratio
same,IC50,[18],7 nM
same,"Activation %, aequorin bioluminescence",[19],102%
same,"EC50, aequorin bioluminescence",[19],15 nM
same,"Activation %, aequorin bioluminescence",[20],121%
same,"EC50, aequorin bioluminescence",[20],51 nM
same,Selectivity 2/1 (MCH-2R/MCH-1R EC50 activity ratio),[20],0.29 ratio
same,IC50,[21],0.44 nM
Ac-RCMLLRVYRPC-NH2 (disulfide 2-11 (inferred)) [SEQ. ID. NO. 17 (Leu^10 analog of Ac-hMCH(6-16)-NH2)],Selectivity 2/1 (MCH-2R/MCH-1R IC50 ratio),[17],1900 ratio
same,IC50,[18],27 nM
same,"Activation %, aequorin bioluminescence",[19],74%
same,"EC50, aequorin bioluminescence",[19],57 nM
same,"Activation %, aequorin bioluminescence",[20],123%
same,"EC50, aequorin bioluminescence",[20],32 nM
same,Selectivity 2/1 (MCH-2R/MCH-1R EC50 activity ratio),[20],1.8 ratio
same,IC50,[21],0.03 nM
